Measured values as given in PMC2330244.
Like-named read-outs stand apart in the source and are kept apart here.

T1: p73α (UniProt O15350 1-636)
T1 sequence: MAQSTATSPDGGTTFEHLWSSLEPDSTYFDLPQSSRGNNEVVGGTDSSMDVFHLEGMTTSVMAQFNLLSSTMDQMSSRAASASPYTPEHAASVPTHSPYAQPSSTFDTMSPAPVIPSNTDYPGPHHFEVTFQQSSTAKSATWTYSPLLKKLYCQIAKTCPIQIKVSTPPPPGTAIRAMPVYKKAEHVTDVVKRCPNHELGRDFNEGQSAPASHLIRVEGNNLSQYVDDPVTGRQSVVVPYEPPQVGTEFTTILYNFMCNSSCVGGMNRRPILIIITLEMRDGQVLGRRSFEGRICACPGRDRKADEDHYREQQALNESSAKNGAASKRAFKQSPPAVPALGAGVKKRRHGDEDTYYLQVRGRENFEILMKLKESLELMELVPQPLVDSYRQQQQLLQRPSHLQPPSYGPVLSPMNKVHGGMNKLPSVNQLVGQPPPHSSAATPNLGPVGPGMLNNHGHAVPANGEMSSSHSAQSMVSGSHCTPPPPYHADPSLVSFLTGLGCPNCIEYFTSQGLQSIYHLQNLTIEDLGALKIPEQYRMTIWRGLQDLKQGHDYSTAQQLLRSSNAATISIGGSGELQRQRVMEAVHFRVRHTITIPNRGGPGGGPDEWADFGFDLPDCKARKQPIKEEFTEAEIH

T2: p73β (UniProt O15350-2 1-499)
T2 sequence: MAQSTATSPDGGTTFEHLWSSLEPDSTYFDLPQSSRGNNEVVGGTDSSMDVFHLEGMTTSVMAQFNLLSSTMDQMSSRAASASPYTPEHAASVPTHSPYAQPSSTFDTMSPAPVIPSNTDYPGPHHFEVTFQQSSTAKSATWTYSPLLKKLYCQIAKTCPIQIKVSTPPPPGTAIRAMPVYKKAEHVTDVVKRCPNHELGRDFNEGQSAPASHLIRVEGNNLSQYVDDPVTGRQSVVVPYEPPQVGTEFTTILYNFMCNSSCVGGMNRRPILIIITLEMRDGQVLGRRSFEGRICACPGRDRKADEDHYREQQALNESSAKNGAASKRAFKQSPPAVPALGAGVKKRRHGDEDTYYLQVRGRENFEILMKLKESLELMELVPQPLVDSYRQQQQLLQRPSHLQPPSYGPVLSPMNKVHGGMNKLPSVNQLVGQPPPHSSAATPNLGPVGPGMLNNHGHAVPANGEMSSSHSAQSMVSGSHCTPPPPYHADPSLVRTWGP

T3: p73δ (UniProt O15350-4 1-403)
T3 sequence: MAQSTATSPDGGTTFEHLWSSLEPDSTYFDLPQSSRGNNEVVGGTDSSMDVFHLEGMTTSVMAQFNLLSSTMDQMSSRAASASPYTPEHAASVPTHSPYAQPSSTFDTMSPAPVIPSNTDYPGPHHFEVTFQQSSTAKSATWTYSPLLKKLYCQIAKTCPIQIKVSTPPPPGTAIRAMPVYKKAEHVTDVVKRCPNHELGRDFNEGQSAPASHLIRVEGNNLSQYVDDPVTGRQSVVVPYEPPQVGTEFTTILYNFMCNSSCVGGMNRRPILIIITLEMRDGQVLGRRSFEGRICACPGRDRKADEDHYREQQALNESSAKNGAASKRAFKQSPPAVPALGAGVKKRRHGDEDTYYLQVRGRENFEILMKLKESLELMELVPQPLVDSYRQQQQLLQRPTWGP

T4: p73γ (UniProt O15350-3 1-475)
T4 sequence: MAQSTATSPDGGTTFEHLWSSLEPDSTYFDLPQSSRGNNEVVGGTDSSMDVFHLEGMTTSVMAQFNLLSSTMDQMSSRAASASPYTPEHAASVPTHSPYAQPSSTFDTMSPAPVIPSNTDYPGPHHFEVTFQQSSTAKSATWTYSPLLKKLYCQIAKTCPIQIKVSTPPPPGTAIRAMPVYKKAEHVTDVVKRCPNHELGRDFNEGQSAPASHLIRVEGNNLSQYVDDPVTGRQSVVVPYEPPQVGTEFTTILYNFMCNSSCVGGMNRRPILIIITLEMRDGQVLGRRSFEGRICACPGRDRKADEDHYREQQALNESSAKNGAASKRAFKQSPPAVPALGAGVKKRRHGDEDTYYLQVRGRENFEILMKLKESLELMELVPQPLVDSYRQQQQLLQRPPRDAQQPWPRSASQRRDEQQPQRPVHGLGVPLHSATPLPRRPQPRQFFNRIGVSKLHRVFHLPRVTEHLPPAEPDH

B1: p21-5' site 28 bp (dsDNA)
DNA 1: TCAGGAACATGTCCCAACATGTTGAGCT
DNA 2: AGCTCAACATGTTGGGACATGTTCCTGA
B2: p53 consensus (dsDNA)
DNA 1: GGGTAGACATGCCTAGACATGCCTAAGCTCCC
DNA 2: GGGAGCTTAGGCATGTCTAGGCATGTCTACCC
B3: p21-5' site 66 bp (dsDNA)
DNA 1: AGCATTGGCTTTCTGGCCATCAGGAACATGTCCCAACATGTTGAGCTCTGGCATAGAAGAGGCGCT
DNA 2: AGCGCCTCTTCTATGCCAGAGCTCAACATGTTGGGACATGTTCCTGATGGCCAGAAAGCCAATGCT

Tests used:
Experiment in all cases: EMSA
p73α+30 [1] = target: T5, p73α+30 (UniProt O15350 1-636+P04637:364-393, internal_change)
p73α [2] = target: T1, p73α
p53 [3] = target: T6, p53 (human, UniProt P04637 1-393)
p73α+30 [4] = target: T5, p73α+30; remark: listed apart in the source
p53 [5] = target: T6, p53; remark: listed apart in the source
p73β = target: T2, p73β
p73δ = target: T3, p73δ
p73α [6] = target: T1, p73α; remark: listed apart in the source
p73α+30 [7] = target: T5, p73α+30; remark: listed apart in the source
p73γ = target: T4, p73γ
p53 [8] = target: T6, p53; remark: listed apart in the source

T6 sequence (P04637 whole entry): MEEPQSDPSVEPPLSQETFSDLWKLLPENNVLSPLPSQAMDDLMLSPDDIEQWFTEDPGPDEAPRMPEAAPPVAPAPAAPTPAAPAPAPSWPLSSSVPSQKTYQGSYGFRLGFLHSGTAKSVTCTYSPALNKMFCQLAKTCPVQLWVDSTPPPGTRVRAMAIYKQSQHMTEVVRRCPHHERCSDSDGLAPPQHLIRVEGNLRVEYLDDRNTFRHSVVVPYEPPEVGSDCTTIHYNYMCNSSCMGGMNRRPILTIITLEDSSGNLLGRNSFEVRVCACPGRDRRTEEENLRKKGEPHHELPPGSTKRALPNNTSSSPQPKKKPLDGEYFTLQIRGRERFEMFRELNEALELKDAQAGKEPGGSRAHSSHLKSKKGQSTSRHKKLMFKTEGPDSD

Binder | binding signal (p73α+30 [1]) | binding result (p73α [2]) | binding result (p53 [3]) | binding result (p73α+30 [4]) | binding result (p53 [5]) | binding result (p73β) | binding result (p73δ) | binding result (p73α [6]) | binding signal (p73α+30 [7]) | binding result (p73γ) | binding result (p53 [8])
B1 | 1 fold (reference for 66 bp) | binds | binds | – | – | – | – | – | – | – | –
B2 | – | – | – | binds | binds | binds | binds | binds | – | – | –
B3 | – | binds | – | – | – | – | – | – | ~5 fold vs 28 bp oligonucleotide | binds | binds
